Numbering of substitutions follows the chain as printed. Each block holds one binder with its values, some of them ahead of it.
Assays:
[1] = biological target: mouse CTLA-4 protein (mouse, UniProt P09793 36-161); experiment: ELISA
[2] = biological target: Mouse CTLA4 (mouse, UniProt P09793 36-161); experiment: ELISA

IC50 [1]: 0.0434 µg/mL
B1: 9D9 DMAb original (antibody)
chain 1: EAKLQESGPVLVKPGASVKMSCKASGYTFTDYYMNWVKQSHGKSLEWIGVINPYNGDTSYNQKFKGKATLTVDKSSSTAYMELNSLTSEDSAVYYCARYYGSWFAYWGQGTLITVSTAKTTPPSVYPLAPGCGDTTGSSVTLGCLVKGYFPESVTVTWNSGSLSSSVHTFPALLQSGLYTMSSSVTVPSSTWPSQTVTCSVAHPASSTTVDKKLEPSGPISTINPCPPCKECHKCPAPNLEGGPSVFIFPPNIKDVLMISLTPKVTCVVVDVSEDDPDVQISWFVNNVEVHTAQTQTHREDYNSTIRVVSTLPIQHQDWMSGKEFKCKVNNKDLPSPIERTISKIKGLVRAPQVYILPPPAEQLSRKDVSLTCLVVGFNPGDISVEWTSNGHTEENYKDTAPVLDSDGSYFIYSKLNMKTSKWEKTDSFSCNVRHEGLKNYYLKKTISRSPGK
chain 2: DIVMTQTTLSLPVSLGDQASISCRSSQSIVHSNGNTYLEWYLQKPGQSPKLLIYKVSNRFSGVPDRFSGSGSGTDFTLKISRVEAEDLGVYYCFQGSHVPYTFGGGTKLEIKRADAAPTVSIFPPSSEQLTSGGASVVCFLNNFYPKDINVKWKIDGSERQNGVLNSWTDQDSKDSTYSMSSTLTLTKDEYERHNSYTCEATHKTSTSPIVKSFNRNEC

IC50 [2]: 0.0442 µg/mL
B4: 9D9 standard (antibody)
chain 1: B1 chain 1
chain 2: B1 chain 2

Further lines, the binder ahead of its results:

B2: 9D9 DMAb mod #2 (antibody)
chain 1: B1 chain 1 with I113V, T117S
chain 2: B1 chain 2
IC50 [1]: 0.0409 µg/mL

B3: 9D9 DMAb mod #4 (antibody)
chain 1: B1 chain 1 with A2V, K3Q, E6Q, I113V, T117S
chain 2: B1 chain 2
IC50 [1]: 0.0367 µg/mL

B5: 9D9 DMAb mod #3 (antibody)
chain 1: B1 chain 1 with A2V, K3Q, E6Q
chain 2: B1 chain 2
IC50 [1]: 0.0361 µg/mL

— patent US20200283525A1 (published 2020)
